The source of these data is patent publication US11932673B2, “Sodium channel inhibitors” (priority 2017, dated 2024).

In one test the target is human Nav1.7 (Homo sapiens, UniProt Q15858). Kind of test: QPatch patch-clamp on CHO cells stably expressing human Nav1.7, four-point concentration-response (Example 21). Type of test: cell-based. The note with it: every 15-minute application of equivalent concentrations. The method, then: The effect of these KnotBodies on cells expressing human Nav1.7 (huNav1.7) channel was then assessed using QPatch automated patch-clamp platform (Sophion). For the testing of Nav1.7 ion channel currents, CHO cells stably expressing human Nav1.7 (GenBank accession number NM 002977; cell line catalogue number CT6003, Charles River Discovery, Cleveland, USA) were subjected to the QPatch electrophysiology assay in the presence or absence of the KnotBody fusions or the antibody isotypes (negative controls). Internal and external physiological solutions were freshly prepared prior to the assay. […] To these measured control currents four ascending concentrations (0.37, 1.1, 3.3 and 10 μM) of KnotBody or parental antibody isotypes (control molecules) were applied to the external bathing solution containing 0.1% BSA. […] The elicited, maximum outward current values measured during the −10 mV activating step for each solution period (a control, baseline level of current was determined at 15 minutes after application of the control external recording solution and a test level of current was determined after 15 minutes of application of each concentration of KnotBody or its isotype control) and average inhibition was determined. […] From these concentration-response curves IC50 values were calculated.

Test [1] deals with trypsin. Description: Phage TRF binding assay of KnotBody phage on immobilised biotinylated trypsin. The method, then: Phage display technology facilitates isolation of binders to any given target from large combinatorial repertoires based on proteins and peptides that can be presented on the surface of filamentous phage^105. In order to isolate functional knottin-antibody fusions from the KnotBody libraries multiple rounds of phage display selections on trypsin (cognate antigen for the EETI-II donor) were carried out. Phage particles were prepared by rescuing KnotBody libraries using trypsin cleavable helper phage^102,106 Two rounds of phage display selections were performed on 10 μg/ml biotinylated trypsin immobilised on Streptavidin (for Round-1) or Neutravidin (for round-2) coated Maxisorp™ immunotubes (Thermo Scientific, Cat No. 444202). In both rounds of selection, phage libraries were pre-incubated with streptavidin coated paramagnetic beads (Thermo Fisher Scientific, Cat. No. 11205D). These beads were removed prior to the addition the phage to the antigen tubes to limit the streptavidin binders entering the selection. Polyclonal phage preparations from round-2 selection outputs were analysed for trypsin binding using a time resolved fluorescence (TRF) binding assay. In this assay, polyclonal phage binding to biotinylated trypsin immobilised on neutravidin (Thermo Fisher Scientific, Cat. No 31000) coated Maxisorp™ plates (Thermo Scientific, Cat. No. 437111) was detected using a mouse anti-M13 antibody (GE Healthcare, Cat. No. 27-9420-01) followed by europium conjugated anti-mouse antibody (Perkin Elmer, Cat. No. AD0124).
In order to identify monoclonal KnotBodies with desired binding characteristics, 94 individual clones derived from 2 rounds of selection using EETI-II CDR1 or CDR2 libraries were picked into 96 well culture plates and phage were prepared from each clone. Methods for screening by monoclonal phage ELISA are known in the art^107. […] Clones with >3× binding signal above background were picked as positive clones and sequenced to identify unique clones. 14 and 42 unique binders were identified from EETI-II CDR1 and EETI-II CDR2 libraries respectively (Table 1). 18 binders from the EETI-II CDR2 library and 3 binders from the EETI-II-CDR1 library were chosen for further characterisation based on their VL and linker sequence diversity. These binders were assigned new clone identification numbers (Table 2). […] In order to confirm that the loss of trypsin binding was not due to reduced expression or display of pIII fusion phage was prepared from 11 (randomly chosen) KnotBodies and their GlyAla variants were analysed on a western blot using an antibody which recognises the product of gene 3 (pIII) using an anti-pIII antibody (MoBiTec GmbH) (FIG. 6).

Test [2] concerns trypsin. Kind of test: TRF binding assay of purified KnotBody Fabs on biotinylated trypsin.
Test [3] relates to trypsin. Description: Phage trypsin binding assay, KB_A12 versus EETI-II cow ULVC-Ab. The note with it: PEG precipitated phage, 12.5x and 0.5x. The text has this: Bovine antibodies have been described with natural ultra-long VH CDR3s containing a solvent exposed double stranded antiparallel sheet approximately 20 A° in length (referred to as the stalk) presenting a folded domain stabilised by 3 disulfide bonds (referred to as the Knob)^10. Zhang and colleagues have shown that the Knob domains of these cow ultra-long VH CDR3 antibodies (ULVC-Ab) can be replaced with other folded proteins such as erythropoietin^13. In this example, we assess the ability of a cow ULVC-Ab to present functional knottin fusions on phage in comparison with a KnotBody. In order to create a Knottin-cow UCLA fusion, the sequence between the first and the last cysteines of the knob region of the Cow ULVC-Ab BLV1H12 was replaced with the sequence of the trypsin binding knottin; EETI-II (EETI-II cow ULVC-Ab). A gene fragment encoding this construct was synthesised (Integrated DNA technologies, Table 21). This synthetic gene was cloned into the phage display vector pSANG4 using restriction sites NcoI and NotI and transformed into E. coli TG1 cells. […] In this assay, the binding of phage rescued from EETI-II cow ULVC-Ab and KB_A12 to trypsin was detected using an anti-M13 antibody followed by europium conjugated anti-mouse antibody (as described in example 3).

human Nav1.7, sequence (Q15858 other isoform, or with tags, fused parts or gaps): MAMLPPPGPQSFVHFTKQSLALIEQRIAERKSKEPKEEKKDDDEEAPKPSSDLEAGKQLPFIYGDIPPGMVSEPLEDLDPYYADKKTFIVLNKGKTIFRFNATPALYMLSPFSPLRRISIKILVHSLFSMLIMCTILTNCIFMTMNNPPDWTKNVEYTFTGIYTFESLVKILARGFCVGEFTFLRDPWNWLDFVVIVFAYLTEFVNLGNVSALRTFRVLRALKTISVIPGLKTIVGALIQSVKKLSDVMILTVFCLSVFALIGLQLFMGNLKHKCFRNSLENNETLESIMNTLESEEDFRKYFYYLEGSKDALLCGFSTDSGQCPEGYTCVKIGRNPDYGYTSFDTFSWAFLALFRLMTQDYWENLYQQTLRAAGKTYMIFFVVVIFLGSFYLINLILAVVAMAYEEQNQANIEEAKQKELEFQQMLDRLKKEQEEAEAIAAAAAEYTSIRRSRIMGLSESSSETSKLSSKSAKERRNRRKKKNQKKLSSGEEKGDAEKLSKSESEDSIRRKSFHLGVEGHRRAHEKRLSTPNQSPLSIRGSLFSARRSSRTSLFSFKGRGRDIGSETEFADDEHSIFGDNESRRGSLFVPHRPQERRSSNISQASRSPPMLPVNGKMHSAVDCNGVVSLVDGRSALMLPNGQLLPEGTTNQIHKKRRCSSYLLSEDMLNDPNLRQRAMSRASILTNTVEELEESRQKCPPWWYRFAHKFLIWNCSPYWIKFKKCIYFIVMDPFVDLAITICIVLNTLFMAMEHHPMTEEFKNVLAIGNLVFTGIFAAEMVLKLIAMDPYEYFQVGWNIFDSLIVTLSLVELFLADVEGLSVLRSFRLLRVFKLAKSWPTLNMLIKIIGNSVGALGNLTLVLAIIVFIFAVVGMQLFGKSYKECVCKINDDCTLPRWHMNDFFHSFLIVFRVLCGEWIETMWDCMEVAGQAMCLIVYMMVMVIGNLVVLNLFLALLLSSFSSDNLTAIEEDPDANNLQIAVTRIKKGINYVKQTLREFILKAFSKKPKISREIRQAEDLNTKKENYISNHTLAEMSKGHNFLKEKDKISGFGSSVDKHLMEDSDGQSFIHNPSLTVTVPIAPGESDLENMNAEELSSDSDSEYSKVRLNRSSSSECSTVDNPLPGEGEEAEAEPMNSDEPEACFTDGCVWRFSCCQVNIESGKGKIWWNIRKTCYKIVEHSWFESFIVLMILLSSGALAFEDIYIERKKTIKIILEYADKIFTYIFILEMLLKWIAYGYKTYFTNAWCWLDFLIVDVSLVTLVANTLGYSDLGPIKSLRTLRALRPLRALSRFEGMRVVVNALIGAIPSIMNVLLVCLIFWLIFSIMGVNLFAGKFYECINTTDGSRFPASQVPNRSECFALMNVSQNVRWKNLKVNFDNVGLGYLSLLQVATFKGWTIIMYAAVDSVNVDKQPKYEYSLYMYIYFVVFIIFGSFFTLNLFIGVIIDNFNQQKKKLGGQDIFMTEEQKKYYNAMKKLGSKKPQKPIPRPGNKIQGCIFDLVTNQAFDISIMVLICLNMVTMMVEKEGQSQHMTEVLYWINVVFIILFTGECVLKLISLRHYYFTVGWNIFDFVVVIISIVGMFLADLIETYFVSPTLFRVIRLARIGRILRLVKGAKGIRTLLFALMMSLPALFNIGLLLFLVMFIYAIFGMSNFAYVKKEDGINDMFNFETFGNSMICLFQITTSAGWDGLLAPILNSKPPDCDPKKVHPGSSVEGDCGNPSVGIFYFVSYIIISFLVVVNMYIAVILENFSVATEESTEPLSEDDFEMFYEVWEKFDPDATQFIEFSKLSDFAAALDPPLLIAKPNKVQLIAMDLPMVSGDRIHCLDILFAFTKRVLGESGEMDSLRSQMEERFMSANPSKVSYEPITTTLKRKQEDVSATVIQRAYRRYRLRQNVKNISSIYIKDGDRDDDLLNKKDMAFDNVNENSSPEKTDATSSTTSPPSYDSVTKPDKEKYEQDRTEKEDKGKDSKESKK

B1: KB_A12: EETI-II VL CDR2 KnotBody, D1A12 VH, VL SEQ ID NO: 105/373; parental/isotype control (antibody, V domains shown)
VH: EVQLVESGGGLVRPGGSLRLSCAASGFTFSSYAMSWVRQAPGKGLEWVSAISGSGGSTYYADSVKGRFTISRDNTKNSLYLQMTSLRADDTAFYYCVKDFGPGYGTGWFDYWGPGTLVTVSS
VL: QSVLTQPPSVSEAPRQRVTITCSGSSSNIGNNAVNWYQQLPGKAPKLLIYAAGRCPRILMRCKQDSDCLAGCVCGPNGFCGANSGVSDRFSAAKSGTSASLAINGLRSEDEADYYCAAWDDSLNGYVFGTGTKLTVLG
As for B1, the cumulative current loss with human Nav1.7 was around 5%. In the test with trypsin [1] ([…], monoclonal phage, streptavidin coated plates), the “% reduction in binding signal” value was 99%. Besides, the “Tryspin binding signal (FU)” value with trypsin [1] (monoclonal phage supernatant, biotinylated trypsin on neutravidin coated plates, TRF) amounted to 69349 FU. The “TRF signal for 0.6 ug/mL Fab” value in the test with trypsin [2] (KnotBody Fab 0.6 ug/mL, background (no Fab) 431) amounted to 102132. Besides, the “TRF signal for 2.4 ug/mL Fab” value in the test on trypsin [2] (KnotBody Fab 2.4 ug/mL, background (no Fab) 406) turned out to be 221989. For the same molecule, in the test with trypsin [2] (KnotBody Fab 10 ug/mL, background (no Fab) 420), the “TRF signal for 10 ug/mL Fab” value was found to be 252832. In the test with trypsin [3], the “phage binding to trypsin” value was “superior binding to trypsin compared to the EET-II-Cow ULVC-Ab fusion”.
